In the supplement of paper PMC10065799, “High-throughput profiling of sequence recognition by tyrosine kinases and SH2 domains using bacterial peptide display” (eLife, 2023):

Key:
[1] = target: EPHB2 (UniProt P29323); assay: phosphorylation enrichment, bacterial display (enrichment ratio); higher = better substrate or ligand; peptides without Tyr show the background
[2] = system: Fer (mouse); assay: as above
[3] = target: EPHB1 (UniProt P54762); assay: as above
[4] = target: Fes (UniProt P07332); assay: as above
[5] = target: Fyn (UniProt P06241); assay: as above
[6] = target: Jak2 (UniProt O60674); assay: as above
[7] = system: AncSZ; assay: as above
[8] = target: MERTK (UniProt Q12866); assay: as above
[9] = target: FGFR3 (UniProt P22607); assay: as above
[10] = system: c-Abl (mouse); assay: as above
[11] = target: FGFR1 (UniProt P11362); assay: as above
[12] = target: Hck (UniProt P08631); assay: as above
[13] = system: c-Src; assay: as above
[14] = target: SHP2-C SH2; assay: SH2 binding enrichment of the phosphorylated peptide, bacterial display (enrichment ratio); higher = better substrate or ligand; peptides without Tyr show the background
[15] = target: c-Src SH2; assay: as above
[16] = target: Grb2 SH2 (UniProt P62993); assay: as above
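Throughout, for SH2 binding enrichment of the phosphorylated peptide, bacterial display: peptide library displayed on the E. coli surface as eCPX fusions, selected cells deep-sequenced, score is each peptide's frequency after selection divided by its frequency in the input.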
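Throughout, for phosphorylation enrichment, bacterial display: 11-residue human phosphosite peptides and single-mutation variants displayed on the E. coli surface, counted by deep sequencing, each peptide's frequency after selection divided by its frequency in the unselected input library; frequency after pTyr selection over input frequency; kinase dosed for 20-30% of maximal phosphorylation in three min.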

Hck, sequence (P08631 whole entry, looked up): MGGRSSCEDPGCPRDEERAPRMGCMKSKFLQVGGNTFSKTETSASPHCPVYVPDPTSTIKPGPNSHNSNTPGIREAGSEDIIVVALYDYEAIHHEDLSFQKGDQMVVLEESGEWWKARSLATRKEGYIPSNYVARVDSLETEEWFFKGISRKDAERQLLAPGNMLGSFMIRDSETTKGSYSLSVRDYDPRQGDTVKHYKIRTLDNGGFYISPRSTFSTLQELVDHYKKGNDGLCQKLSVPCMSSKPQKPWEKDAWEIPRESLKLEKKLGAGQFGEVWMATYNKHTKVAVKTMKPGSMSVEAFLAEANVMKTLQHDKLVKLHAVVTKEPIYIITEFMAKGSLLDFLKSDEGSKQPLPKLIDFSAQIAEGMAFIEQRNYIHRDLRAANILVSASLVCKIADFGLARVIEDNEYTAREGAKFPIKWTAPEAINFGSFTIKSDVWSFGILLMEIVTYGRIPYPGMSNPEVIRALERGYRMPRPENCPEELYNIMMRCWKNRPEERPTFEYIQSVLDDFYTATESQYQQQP
FGFR3, sequence (P22607 whole entry, looked up): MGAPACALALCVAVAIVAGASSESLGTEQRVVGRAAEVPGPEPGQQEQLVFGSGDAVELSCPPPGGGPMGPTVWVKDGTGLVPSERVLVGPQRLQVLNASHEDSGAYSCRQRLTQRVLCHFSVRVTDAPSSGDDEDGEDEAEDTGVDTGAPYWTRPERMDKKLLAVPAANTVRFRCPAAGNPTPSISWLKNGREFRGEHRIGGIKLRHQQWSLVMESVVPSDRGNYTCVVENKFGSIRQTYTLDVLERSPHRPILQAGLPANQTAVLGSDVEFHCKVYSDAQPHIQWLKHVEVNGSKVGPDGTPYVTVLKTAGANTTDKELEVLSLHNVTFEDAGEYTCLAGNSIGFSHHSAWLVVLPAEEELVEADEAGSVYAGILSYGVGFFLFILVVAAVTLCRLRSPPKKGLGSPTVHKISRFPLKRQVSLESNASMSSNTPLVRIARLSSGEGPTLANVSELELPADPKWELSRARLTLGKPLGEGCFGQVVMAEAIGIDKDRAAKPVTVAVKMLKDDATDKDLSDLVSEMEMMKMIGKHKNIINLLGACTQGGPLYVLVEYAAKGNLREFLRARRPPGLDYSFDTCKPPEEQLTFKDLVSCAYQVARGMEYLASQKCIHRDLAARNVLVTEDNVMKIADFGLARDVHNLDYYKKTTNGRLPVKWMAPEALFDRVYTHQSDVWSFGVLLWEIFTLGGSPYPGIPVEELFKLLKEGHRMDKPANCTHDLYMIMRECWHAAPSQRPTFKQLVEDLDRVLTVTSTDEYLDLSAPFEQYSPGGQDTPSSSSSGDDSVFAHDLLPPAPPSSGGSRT
FGFR1, sequence (P11362 whole entry, looked up): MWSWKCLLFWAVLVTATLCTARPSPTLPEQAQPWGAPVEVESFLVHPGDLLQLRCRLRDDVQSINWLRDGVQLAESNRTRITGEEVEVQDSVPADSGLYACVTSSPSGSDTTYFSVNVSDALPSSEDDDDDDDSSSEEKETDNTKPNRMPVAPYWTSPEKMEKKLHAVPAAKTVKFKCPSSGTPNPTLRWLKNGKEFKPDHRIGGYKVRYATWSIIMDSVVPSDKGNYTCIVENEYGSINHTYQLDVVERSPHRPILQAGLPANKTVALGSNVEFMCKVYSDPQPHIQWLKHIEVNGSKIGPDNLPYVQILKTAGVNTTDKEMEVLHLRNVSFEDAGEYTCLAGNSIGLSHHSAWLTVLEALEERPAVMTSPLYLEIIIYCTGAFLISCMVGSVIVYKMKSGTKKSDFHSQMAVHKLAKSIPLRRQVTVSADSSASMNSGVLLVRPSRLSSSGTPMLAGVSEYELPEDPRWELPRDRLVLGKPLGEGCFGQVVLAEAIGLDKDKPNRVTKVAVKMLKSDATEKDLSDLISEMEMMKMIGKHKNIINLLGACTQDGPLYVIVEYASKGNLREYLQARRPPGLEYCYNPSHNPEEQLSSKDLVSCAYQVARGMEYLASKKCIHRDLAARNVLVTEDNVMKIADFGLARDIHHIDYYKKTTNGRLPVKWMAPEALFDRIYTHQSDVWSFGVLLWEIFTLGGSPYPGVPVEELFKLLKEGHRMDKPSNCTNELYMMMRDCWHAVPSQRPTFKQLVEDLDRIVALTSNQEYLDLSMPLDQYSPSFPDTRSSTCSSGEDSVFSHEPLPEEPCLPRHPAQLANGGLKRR
EPHB2, sequence (P29323 whole entry, looked up): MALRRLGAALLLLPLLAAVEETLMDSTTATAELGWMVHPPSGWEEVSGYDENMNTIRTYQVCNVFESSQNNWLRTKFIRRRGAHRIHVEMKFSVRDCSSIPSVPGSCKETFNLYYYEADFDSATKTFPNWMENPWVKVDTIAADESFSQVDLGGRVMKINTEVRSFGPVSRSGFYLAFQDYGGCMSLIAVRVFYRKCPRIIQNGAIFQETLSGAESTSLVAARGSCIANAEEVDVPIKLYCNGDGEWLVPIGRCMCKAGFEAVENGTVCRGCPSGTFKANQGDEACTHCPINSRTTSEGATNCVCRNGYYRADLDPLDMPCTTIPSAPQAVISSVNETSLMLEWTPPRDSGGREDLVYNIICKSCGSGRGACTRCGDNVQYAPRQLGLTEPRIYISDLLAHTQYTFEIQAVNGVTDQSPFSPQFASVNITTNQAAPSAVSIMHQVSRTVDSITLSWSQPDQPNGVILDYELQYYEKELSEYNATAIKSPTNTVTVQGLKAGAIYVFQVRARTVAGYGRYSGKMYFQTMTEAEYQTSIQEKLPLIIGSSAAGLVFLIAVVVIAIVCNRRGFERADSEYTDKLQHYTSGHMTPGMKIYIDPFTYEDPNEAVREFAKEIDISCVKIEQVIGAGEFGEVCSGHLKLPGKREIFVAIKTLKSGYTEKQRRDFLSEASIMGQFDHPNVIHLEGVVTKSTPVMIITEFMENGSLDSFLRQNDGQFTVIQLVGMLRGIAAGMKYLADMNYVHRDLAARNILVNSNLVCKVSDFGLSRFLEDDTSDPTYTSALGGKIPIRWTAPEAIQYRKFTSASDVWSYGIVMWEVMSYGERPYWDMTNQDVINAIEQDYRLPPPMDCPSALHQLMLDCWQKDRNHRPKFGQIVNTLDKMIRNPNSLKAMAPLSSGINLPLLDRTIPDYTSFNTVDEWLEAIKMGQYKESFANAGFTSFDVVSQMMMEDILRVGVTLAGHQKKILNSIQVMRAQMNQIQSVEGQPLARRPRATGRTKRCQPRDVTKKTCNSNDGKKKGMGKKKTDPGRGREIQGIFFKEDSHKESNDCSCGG
Fes, sequence (P07332 whole entry, looked up): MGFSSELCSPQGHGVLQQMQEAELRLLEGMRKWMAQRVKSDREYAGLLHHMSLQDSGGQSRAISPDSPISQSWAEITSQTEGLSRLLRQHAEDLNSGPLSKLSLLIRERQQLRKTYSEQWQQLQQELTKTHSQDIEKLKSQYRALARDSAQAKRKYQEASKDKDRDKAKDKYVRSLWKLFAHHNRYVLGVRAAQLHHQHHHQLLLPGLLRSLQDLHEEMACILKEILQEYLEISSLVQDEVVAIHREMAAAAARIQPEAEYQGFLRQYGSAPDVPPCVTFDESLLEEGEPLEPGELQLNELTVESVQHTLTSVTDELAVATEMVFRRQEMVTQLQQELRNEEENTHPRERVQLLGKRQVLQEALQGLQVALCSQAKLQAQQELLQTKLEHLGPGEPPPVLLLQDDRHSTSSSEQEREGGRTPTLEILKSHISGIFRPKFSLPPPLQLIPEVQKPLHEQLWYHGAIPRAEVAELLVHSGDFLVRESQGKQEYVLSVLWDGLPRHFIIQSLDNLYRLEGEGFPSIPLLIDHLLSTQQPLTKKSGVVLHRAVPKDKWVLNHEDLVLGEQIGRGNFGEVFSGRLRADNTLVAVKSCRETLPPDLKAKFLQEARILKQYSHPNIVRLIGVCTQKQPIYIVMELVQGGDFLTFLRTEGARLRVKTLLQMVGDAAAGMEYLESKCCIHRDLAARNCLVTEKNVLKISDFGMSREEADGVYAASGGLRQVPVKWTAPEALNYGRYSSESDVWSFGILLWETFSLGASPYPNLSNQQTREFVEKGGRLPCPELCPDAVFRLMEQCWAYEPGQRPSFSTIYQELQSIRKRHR
EPHB1, sequence (P54762 whole entry, looked up): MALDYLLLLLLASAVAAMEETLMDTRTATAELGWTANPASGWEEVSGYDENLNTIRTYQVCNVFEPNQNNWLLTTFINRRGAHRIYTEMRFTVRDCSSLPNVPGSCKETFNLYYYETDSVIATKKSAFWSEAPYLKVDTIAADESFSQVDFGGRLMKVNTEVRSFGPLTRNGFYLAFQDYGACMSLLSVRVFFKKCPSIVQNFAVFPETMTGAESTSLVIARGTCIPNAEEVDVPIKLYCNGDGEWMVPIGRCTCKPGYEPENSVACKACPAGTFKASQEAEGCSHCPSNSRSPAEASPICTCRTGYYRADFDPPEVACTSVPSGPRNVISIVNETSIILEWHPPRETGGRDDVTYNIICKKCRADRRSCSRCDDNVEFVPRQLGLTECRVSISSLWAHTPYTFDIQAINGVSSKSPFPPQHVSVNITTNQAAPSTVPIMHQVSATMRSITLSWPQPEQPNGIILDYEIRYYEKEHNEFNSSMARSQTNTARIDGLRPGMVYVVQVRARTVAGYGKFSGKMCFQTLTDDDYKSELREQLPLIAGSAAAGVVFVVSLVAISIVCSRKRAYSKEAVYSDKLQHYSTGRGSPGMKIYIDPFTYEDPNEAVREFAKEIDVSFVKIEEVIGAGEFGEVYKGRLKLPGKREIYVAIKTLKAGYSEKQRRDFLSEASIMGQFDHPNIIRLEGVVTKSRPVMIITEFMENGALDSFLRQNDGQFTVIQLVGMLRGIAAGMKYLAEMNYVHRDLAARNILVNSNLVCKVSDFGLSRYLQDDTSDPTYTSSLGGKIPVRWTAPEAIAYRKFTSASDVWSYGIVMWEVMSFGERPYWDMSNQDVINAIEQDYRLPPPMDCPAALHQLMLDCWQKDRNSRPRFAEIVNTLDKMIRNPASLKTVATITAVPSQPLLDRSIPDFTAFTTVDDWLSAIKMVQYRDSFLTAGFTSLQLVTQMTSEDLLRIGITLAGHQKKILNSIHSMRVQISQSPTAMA

| Sequence | SH2 binding enrichment [14] | SH2 binding enrichment [15] | SH2 binding enrichment [16] | phosphorylation enrichment [1] | phosphorylation enrichment [2] | phosphorylation enrichment [3] | phosphorylation enrichment [4] | phosphorylation enrichment [5] | phosphorylation enrichment [6] | phosphorylation enrichment [7] | phosphorylation enrichment [8] | phosphorylation enrichment [9] | phosphorylation enrichment [10] | phosphorylation enrichment [11] | phosphorylation enrichment [12] | phosphorylation enrichment [13] |
| --- | --- | --- | --- | --- | --- | --- | --- | --- | --- | --- | --- | --- | --- | --- | --- | --- |
| AACQHYGVRTC [NR4A2_Y275] | 0.896 | 0.721 | 1 | 0.412 | 0.379 | 0.381 | 0.581 | 0.452 | 0.513 | 0.592 | 0.406 | 0.405 | 0.424 | 0.472 | 0.421 | 0.408 |
| AALVQYYMEHH [PTPN11_Y80_E76A] | 1.16 | 0.742 | 0.991 | 1.17 | 0.415 | 1.9 | 0.912 | 0.529 | 0.745 | 0.937 | 0.68 | 0.767 | 0.49 | 0.722 | 0.813 | 0.541 |
| ADELEYSRTGL [MMUT_Y287_G284E] | 0.623 | 0.457 | 0.747 | 0.568 | 0.437 | 0.596 | 0.972 | 0.482 | 0.741 | 1.11 | 0.407 | 0.645 | 0.644 | 0.402 | 0.517 | 0.464 |
| ADLLDYIKALN [HPRT1_Y81] | 0.607 | 0.468 | 0.786 | 0.558 | 0.531 | 0.625 | 1.2 | 0.445 | 0.928 | 1.07 | 0.48 | 0.695 | 0.754 | 0.434 | 0.52 | 0.484 |
| ADQLDYIKALN [HPRT1_Y81_L78Q] | 0.559 | 0.491 | 0.914 | 0.474 | 0.451 | 0.784 | 1.22 | 0.492 | 0.861 | 1.06 | 0.441 | 0.608 | 0.708 | 0.458 | 0.526 | 0.408 |
| ADRSCYDLSCH [GARS1_Y467] | 0.968 | 0.985 | 0.79 | 0.528 | 0.431 | 0.486 | 0.91 | 0.604 | 0.798 | 0.92 | 0.457 | 0.586 | 0.631 | 0.433 | 0.561 | 0.472 |
| ADYPDYKYRPR [SOX11_Y116] | 1.18 | 0.587 | 0.973 | 0.489 | 0.342 | 0.48 | 0.718 | 0.389 | 0.601 | 0.673 | 0.378 | 0.613 | 0.461 | 0.594 | 0.505 | 0.409 |
| AEQDWYHGAIP [FER_Y461] | 0.478 | 0.634 | 0.725 | 0.546 | 0.559 | 0.481 | 0.921 | 0.846 | 0.802 | 1.06 | 0.443 | 1.54 | 0.646 | 1.72 | 1.22 | 1.19 |
| AEVIWYKGDEV | 0.684 | 0.475 | 0.822 | 0.572 | 0.491 | 0.707 | 1.41 | 0.394 | 1.42 | 1.13 | 0.399 | 0.784 | 1.15 | 0.433 | 0.602 | 0.474 |
| AFHGEYIPTVF [RAC2_Y32_P29H] | 0.59 | 0.682 | 0.91 | 0.447 | 0.391 | 0.554 | 0.809 | 0.445 | 0.571 | 0.859 | 0.432 | 0.635 | 0.575 | 0.602 | 0.412 | 0.419 |

Second part, led by results:

| SH2 binding enrichment [14] | SH2 binding enrichment [15] | SH2 binding enrichment [16] | Sequence | phosphorylation enrichment [1] | phosphorylation enrichment [2] | phosphorylation enrichment [3] | phosphorylation enrichment [4] | phosphorylation enrichment [5] | phosphorylation enrichment [6] | phosphorylation enrichment [7] | phosphorylation enrichment [8] | phosphorylation enrichment [9] | phosphorylation enrichment [10] | phosphorylation enrichment [11] | phosphorylation enrichment [12] | phosphorylation enrichment [13] |
| --- | --- | --- | --- | --- | --- | --- | --- | --- | --- | --- | --- | --- | --- | --- | --- | --- |
| 0.683 | 0.57 | 0.821 | AAILGYCRGEA [XPC_Y669] | 0.45 | 0.419 | 0.567 | 1.02 | 0.438 | 0.786 | 0.789 | 0.413 | 0.556 | 0.718 | 0.541 | 0.467 | 0.372 |
| 0.526 | 0.593 | 0.757 | AALRLYHVSDS [VIL1_Y256_K254R] | 0.508 | 0.531 | 0.617 | 0.959 | 0.579 | 0.734 | 0.738 | 0.478 | 0.763 | 0.798 | 0.641 | 0.485 | 0.451 |
| 0.543 | 0.594 | 0.852 | AAQNCYKVTNG [TPI1_Y105] | 0.421 | 0.391 | 0.37 | 0.905 | 0.411 | 0.665 | 0.725 | 0.411 | 0.536 | 0.738 | 0.523 | 0.408 | 0.356 |
| 0.753 | 0.874 | 0.733 | ADDSYYTVRSA [ZAP70_Y493_A495V] | 0.637 | 0.425 | 0.709 | 0.941 | 2.01 | 1.47 | 1.56 | 0.784 | 5.2 | 0.611 | 7.54 | 2.89 | 2.45 |
| 0.816 | 0.42 | 0.783 | AEFGLYGAMVR [VSX2_Y222_YF] | 0.719 | 0.828 | 0.741 | 1.21 | 5.3 | 0.868 | 1.07 | 0.674 | 0.715 | 0.678 | 0.538 | 6.05 | 3.61 |
| 0.789 | 0.633 | 0.89 | AEFGLYRAMVR [VSX2_Y222_G223R_YF] | 0.595 | 0.431 | 0.731 | 0.779 | 0.821 | 0.726 | 0.753 | 0.843 | 0.673 | 1.48 | 0.484 | 4.12 | 0.855 |
